Laboratory results as given in article PMC9945994 (Proceedings of the National Academy of Sciences of the …, 2023).
Values joined by “and” are separate entries in the source; they are usually repeats but may differ in a detail not shown here. Equal values may be shown once.

Key:
[1] = biological target: PscA, 82-kDa core subunit of the green sulfur bacterial reaction center (GsbRC) (Chlorobaculum tepidum TLS); assay: cryo-EM structure
[2] = biological target: reaction center of the green sulfur bacterium Chlorobaculum tepidum (GsbRC) (Chlorobaculum tepidum TLS) (UniProt O07091)
[3] = biological target: T1, Fenna–Matthews–Olson (FMO) protein (Chlorobaculum tepidum TLS, UniProt Q46393 1-366); assay: cryo-EM structure
T1 sequence (looked up): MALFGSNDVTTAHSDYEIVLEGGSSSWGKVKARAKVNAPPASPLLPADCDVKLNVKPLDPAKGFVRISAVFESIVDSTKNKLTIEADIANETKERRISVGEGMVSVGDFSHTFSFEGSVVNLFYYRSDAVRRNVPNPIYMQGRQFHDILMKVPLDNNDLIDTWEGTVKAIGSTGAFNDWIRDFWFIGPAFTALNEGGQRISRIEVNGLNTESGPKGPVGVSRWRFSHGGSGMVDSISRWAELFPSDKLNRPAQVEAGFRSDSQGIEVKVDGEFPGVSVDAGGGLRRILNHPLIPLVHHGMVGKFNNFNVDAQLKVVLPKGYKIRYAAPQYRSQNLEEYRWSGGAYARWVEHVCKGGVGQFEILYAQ

“PscA, 82-kDa core subunit of the green sulfur bacterial reaction center (GsbRC) (natural protein)” gave a stoichiometry N [1] of 2.

B1: Fenna–Matthews–Olson (FMO) protein (natural protein)
chain: MALFGSNDVTTAHSDYEIVLEGGSSSWGKVKARAKVNAPPASPLLPADCDVKLNVKPLDPAKGFVRISAVFESIVDSTKNKLTIEADIANETKERRISVGEGMVSVGDFSHTFSFEGSVVNLFYYRSDAVRRNVPNPIYMQGRQFHDILMKVPLDNNDLIDTWEGTVKAIGSTGAFNDWIRDFWFIGPAFTALNEGGQRISRIEVNGLNTESGPKGPVGVSRWRFSHGGSGMVDSISRWAELFPSDKLNRPAQVEAGFRSDSQGIEVKVDGEFPGVSVDAGGGLRRILNHPLIPLVHHGMVGKFNNFNVDAQLKVVLPKGYKIRYAAPQYRSQNLEEYRWSGGAYARWVEHVCKGGVGQFEILYAQ
B1 was tested, and the stoichiometry N [2] was 2 and 1.

B2: PscD, 17-kDa protein of GsbRC (natural protein, Chlorobaculum tepidum TLS, UniProt Q8KEP5 1-143, looked up)
chain: MQPQLSRPQTASNQVRKAVSGPWSGNAVHKAEKYFITSAKRDRDGKLQIELVPASGRRKLSPTPEMIRRLIDGEIEIYILTTQPDIAIDMNKEIIDMENRYVIDFDKRGVKWTMREIPVFYHEGKGLCVELHNKIYTLDQFFK
B2: binds [3].
